In publication PMC4703070, “cryo-EM structures of the E. coli replicative DNA polymerase reveal its dynamic interactions with the DNA sliding clamp, exonuclease and τ” (eLife, 2015):

Assays:
[1] = biological target: T1, E. coli DNA polymerase III α with improved clamp binding motif (PolIIIα^QLDLF) (E. coli, UniProt P10443 1-1160, 920-924 QADMF to QLDLF); assay: cryo-EM structure; four-protein complex assembled at 15 μM, gel filtration in 25 mM Hepes pH 7.5, 50 mM potassium glutamate, 3 mM magnesium acetate, 2 mM DTT; peak fraction (~4 μM) with 20 μM 25 bp DNA substrate; DNA-free (8.3 Å), DNA-bound (8.0 Å) and DNA-bound without tail (7.3 Å) classes from a single data set; crystal and NMR structures fitted as rigid bodies; conditions: both partners purified
T1 construct: DNA polymerase III subunit α (PolIIIα), E. coli; It says that His-tags were removed with 3C protease but not which of the proteins carried one; PDB 2HNH lacks the C-terminal tail; source: E. coli (DE3) BL21, purified (as described in Toste Rêgo et al., 2013)

[2] = biological target: PolIIIα (clamp-binding motif QADMF to QLDLF);DNA sliding clamp β;exonuclease ε (clamp-binding motif QTSMAF to … (Escherichia coli;Escherichia …, UniProt P10443;P0A988;P03007;P06710 1-1160;1-366;1-243;500-643, A921L;M923L||T183L;M185L;A186P;F187L|)); assay: cryo-EM; 3 mM Mg acetate; 8.0 Å DNA-bound map (7.3 Å for class without visible tail/τ500); EMSA: 20 mM Tris pH 7.5, 4% glycerol, 5 mM DTT, 40 μg/ml BSA, 40 mM K glutamate, 10 min room temperature, native 6% gel; cryo-EM: 25 mM Hepes pH 7.5, 50 mM K glutamate, 3 mM Mg acetate, 2 mM DTT, ~4 μM complex + 20 μM DNA, room temperature, then Tween 20; conditions: protein: recombinant;recombinant;recombinant;recombinant; tags: ;;;His-tag removed (HRV 3C); copies: 1;2;1;1; 25 bp duplex, 5' overhang 4 nt on template strand
[3] = biological target: T2, Pol IV (Escherichia coli, UniProt Q47155 1-351); assay: EMSA; 2.5 μM protein, 5 nM DNA; EMSA: 20 mM Tris pH 7.5, 4% glycerol, 5 mM DTT, 40 μg/ml BSA, 40 mM K glutamate, 10 min room temperature, native 6% gel; cryo-EM: 25 mM Hepes pH 7.5, 50 mM K glutamate, 3 mM Mg acetate, 2 mM DTT, ~4 μM complex + 20 μM DNA, room temperature, then Tween 20; conditions: protein: recombinant; label: 6-FAM at 5' end of primer strand; 25 bp duplex, 5' overhang 4 nt on template strand
T2 sequence: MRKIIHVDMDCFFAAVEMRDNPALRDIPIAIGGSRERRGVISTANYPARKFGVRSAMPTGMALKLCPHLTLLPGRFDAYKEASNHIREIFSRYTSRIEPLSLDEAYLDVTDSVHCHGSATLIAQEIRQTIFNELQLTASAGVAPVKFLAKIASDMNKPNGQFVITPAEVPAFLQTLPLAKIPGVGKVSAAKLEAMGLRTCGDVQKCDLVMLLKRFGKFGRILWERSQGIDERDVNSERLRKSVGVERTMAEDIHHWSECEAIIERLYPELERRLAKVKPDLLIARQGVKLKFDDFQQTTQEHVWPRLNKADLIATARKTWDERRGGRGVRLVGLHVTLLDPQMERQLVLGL

[4] = biological target: Pol I (Klenow fragment) (Escherichia coli, UniProt P00582 324-928); assay: as above; conditions: protein: recombinant; label: 6-FAM at 5' end of primer strand; 25 bp duplex, 5' overhang 4 nt on template strand
[5] = biological target: T3, E. coli DNA sliding clamp β (E. coli, UniProt P0A988 1-366); assay: cryo-EM structure; four-protein complex assembled at 15 μM, gel filtration in 25 mM Hepes pH 7.5, 50 mM potassium glutamate, 3 mM magnesium acetate, 2 mM DTT; peak fraction (~4 μM) with 20 μM 25 bp DNA substrate; DNA-free (8.3 Å), DNA-bound (8.0 Å) and DNA-bound without tail (7.3 Å) classes from a single data set; crystal and NMR structures fitted as rigid bodies; conditions: both partners purified
T3 construct: DNA polymerase III β subunit (DNA sliding clamp), E. coli; dimeric; It says that His-tags were removed with 3C protease but not which of the proteins carried one; also called β subunit; source: E. coli (DE3) BL21, purified (as described in Toste Rêgo et al., 2013)

B1: τ500 (the polymerase-binding domain of τ: residues 500–643) (domain or fragment, E. coli, UniProt P06710 500-643, looked up)
chain: ALEHEKTPELAAKLAAEAIERDPWAAQVSQLSLPKLVEQVALNAWKEESDNAVCLHLRSSQRHLNNRGAQQKLAEALSMLKGSTVELTIVEDDNPAVRTPLEWRQAIYEEKLAQARESIIADNNIQTLRRFFDAELDEESIRPI
notes: PDB 2AYA (NMR) holds residues 500-621 only; His-tags were removed with human rhinovirus 3C protease; also called τc; C-terminal domain of the clamp loader subunit τ; source: E. coli (DE3) BL21, purified (Histrap HP, Resource S, Superdex 75)
binding result [1]: binds

B2: 25 bp primer-template with 4 nt overhang (cryo-EM) (dsDNA)
DNA 1: TCAGGAGTCCTTCGTCCTAGTACTACTCC
DNA 2: GGAGTAGTACTAGGACGAAGGACTC
binding result [2]: binds

B3: 25 bp primer-template with 4 nt overhang (EMSA) (dsDNA)
DNA 1: TCAGGAGTCCTTCGTCCTAGTACTACTCC
DNA 2: GGAGTAGTACTAGGACGAAGGACTC
modifications: phosphorothioate at 3' terminal bond (primer; strand implied)
binding result [3]: binds
binding result [4]: binds

B4: E. coli proofreading exonuclease ε with improved clamp binding motif (exonuclease^QLSLPL) (enzyme, UniProt P03007 1-243, looked up)
chain: MSTAITRQIVLDTETTGMNQIGAHYEGHKIIEIGAVEVVNRRLTGNNFHVYLKPDRLVDPEAFGVHGIADEFLLDKPTFAEVADEFMDYIRGAELVIHNAAFDIGFMDYEFSLLKRDIPKTNTFCKVTDSLAVARKMFPGKRNSLDALCARYEIDNSKRTLHGALLDAQILAEVYLAMTGGQLSLPLAMEGETQQQQGEATIQRIVRQASKLRVVFATDEEIAAHEARLDLVQKKGGSCLWRA
notes: DNA polymerase III subunit ε (proofreading exonuclease), E. coli; residues 190-207 are a missing loop; source: E. coli (DE3) BL21, purified (as described in Toste Rêgo et al., 2013)
binding result [1]: binds
binding result [5]: binds
